Experimental findings from patent US20250382355A1 (Merck Sharp & Dohme, published 2025) are described below.

Broadly, the EC50 is the concentration needed to bring the measured effect to its halfway point. A higher EC50 goes with lower potency in that assay.

For assay [1], the target named is T1, Biotinylated CoV2 Spike ECD PreS-AVI protein (SARS-CoV-2, UniProt P0DTC2 14-1208). Nature of the assay: Octet binning; competitor 20D11. In general terms: In BLI a coated tip is dipped into the sample, and binding shifts an interference pattern.
Assay [2] addresses T2, SARS-CoV-2 prefusion-stabilized spike protein (SARS-CoV-2-PreS) (SARS-CoV-2, UniProt P0DTC2 14-1208). The assay is described as follows: ELISA. In general terms: In an ELISA, binding on a coated surface is turned into a signal by an enzyme label.
Assay [3] addresses T2, SARS-CoV-2 prefusion-stabilized spike …. The assay is described as follows: Biacore, apparent affinity. Background: Surface plasmon resonance follows binding to a sensor surface in real time, without labels.
In assay [4] the target is T1, Biotinylated CoV2 Spike ECD PreS-AVI …. The assay is described as follows: Octet binning; competitor 19B8.
Assay [5] concerns the target SARS-CoV-2 Omicron spike on pseudovirus (SARS-CoV-2). Nature of the assay: cell-based or functional assay.
The target of assay [6] is T1, Biotinylated CoV2 Spike ECD PreS-AVI …. Nature of the assay: Octet binning; competitor 11F8.
Assay [7] has the same target. The assay is described as follows: Octet binning; competitor 15H7.
For assay [8] the target is unchanged. Nature of the assay: Octet binning; competitor 9B2.
For assay [9] the target is unchanged. Nature of the assay: Octet binning; competitor 8E9.
Assay [10] has the same target. The assay is described as follows: Octet binning; competitor 13C8.
Assay [11] has the same target. The assay is described as follows: Octet binning; competitor 15H1.
For assay [12] the target is unchanged. The assay is described as follows: Octet binning; competitor Std-D.
Assay [13] has the same target. The assay is described as follows: Octet binning; competitor 7A9.
For assay [14] the target is unchanged. Nature of the assay: Octet binning; competitor 1A11.
Assay [15] shares this target. Nature of the assay: Octet binning; competitor Std-A.
Assay [16] shares this target. Nature of the assay: Octet binning; competitor Std-B.
For assay [17], the target named is SARS-CoV-2 Alpha B.1.1.7 spike on pseudovirus (SARS-CoV-2). The assay is described as follows: cell-based or functional assay.
Assay [18] addresses SARS-CoV-2 Gamma P.1 spike on pseudovirus (SARS-CoV-2). The assay is described as follows: cell-based or functional assay.
For assay [19], the target named is SARS-CoV-2 Beta B.1.351 spike on pseudovirus (SARS-CoV-2). Nature of the assay: cell-based or functional assay.

Changes are numbered by the printed parent chain.

B1: 19B8 VHH-Fc (Fc fusion)
chain: QVQLVESGGGLVQAGGSLRLSCAASGRTFTNYAMGWFRQAPGKEREFVAAISWSGGGTNYADSVKGRFTISRDNAKNTVYLQMNSPKPEDTAVYYCATTLGYYGSSSRLYEYWGQGTQVTVSS
For the molecule B1, the figures for the binning response in [1] and in [4] were 0.48 and 0.08, respectively. Also, in [2], it took 60 pM to reach a half-maximal effect (EC50). Moreover, the Kd in assay [3] is 1100 pM. Moreover, the “pseudovirus neutralization IC50” value in assay [5] was 47000 pM.

B2: 16H7 VHH-Fc (Fc fusion)
chain: QVQLVESGGGLVQAGGSLRLSCAASGRAFSKDTMGWFRQAPGKEREFVAVISASGDSTYYADFVKGRFTISRDNAKNTEYLQMNSLKPEDTAVYHCAADGARAYYSINAHRYSWAYNYWGQGTQVTVSS
B2: the binning response in assay [1] turned out to be 0.56; in assay [4], 0.19. Besides, in [2], the EC50 was found to be 80 pM. Moreover, the Kd in assay [3] stood at 3000 pM.

B3: 11F5 VHH-Fc (Fc fusion)
chain: QVQLVESGGGAVQAGDSLRLSCTASGRTFSTYAVGWFRQAPGKERELLAAITGSGRNPYYPDSLKGRFTISREYAKLPVYLQMNSLKPEDTAVYYCAARRGAIATMPLDYDHWGQGTQVTVSS
B3: the binning response in [1] stood at 0.1; in assay [4] it was 0.52. For the same molecule, in [2], the EC50 turned out to be 120 pM. The Kd in assay [3] was below 200 pM.

B4: 20D11 VHH-Fc (Fc fusion)
chain: QVQLVESGGGLVQAGGSLRLSCAASGRTSSIYSVGWFRQAPGKERELVAGITWSGGTTYYSDSVKGRFTISRDNAKNTVNLQMNNLKPEDTAIYYCAVDRYSMTMSARDYDYWGQGTQVTVSS
For the molecule B4, the binning response in assay [1] worked out at 0.04; in [4], 0.43. In assay [2], this molecule returned an EC50 of 620 pM. Also, the Kd in assay [3] is below 200 pM.

B5: 5G11 VHH-Fc (Fc fusion)
chain: B4 chain with S29F, S33A, E46D, L47F, N80Y, R100T, M105L, D109S
Regarding B5, the binning response in assay [1] came out at 0.05; in assay [4] it was 0.4. Besides, the EC50 in [2] came to 400 pM. The Kd in assay [3] worked out at 1500 pM.

B6: 14F3 VHH-Fc (Fc fusion)
chain: B4 chain with S33G, G50L, R72K, N80F, R100T, D111E
For B6, the figures for the binning response in assay [1] and in assay [4] were 0.04 and 0.46, respectively. For the same molecule, in assay [2], the midpoint of the response, the EC50, lay at 50 pM. Besides, the Kd in [3] was below 200 pM.

B7: 10B8 VHH-Fc (Fc fusion)
chain: QVQLVESGGGLVQPGGSLRLSCAASGITLDYYAIAWFRQAPGKEREGVSCFCSSDGDIRYADSVKGRFTISRDNAKNTVYLQMNSLKPEDTAVYYCATERVYSSTWFFHRYSELDFGSWGRGTQVTVSS
Take B7: the binning response in assay [6] was 0.1; in [7], 0.12; in [8] it was 0.12; in assay [9] it was 0.09; in assay [10], 0.12; in [11], 0.12. Also, the binning response is 0.05 in assay [12]; 0.42 in [13]; 0.1 in assay [14]; 0.39 in assay [15]; 0.36 in assay [16]. The midpoint of the response in assay [2], the EC50, lay at 1350 pM. In addition, the Kd in [3] is below 200 pM. Also, the “pseudovirus neutralization IC50” value in assay [17] was 380 pM; in assay [18], 210 pM; in [19], 230 pM; in assay [5] it was 4100 pM.

B8: 6A1 VHH-Fc (Fc fusion)
chain: QVQLVESGGGLVQAGGSLRLSCTASGNIFSVNVMGWHRQAPGKRRELVAALTNDGRRNYADSVKGRFTISRDNAKNTIYLEMNSLKPEDTAVYYCGTGTLESGFNSWGQGLQVTVSS
As to B8, the binning response in assay [1] turned out to be 0.37; in assay [4], 0.4. This molecule also yielded an EC50 in assay [2] of 440 pM. For the same molecule, in [3], the Kd was determined as 1600 pM.
